{
  "source": "paper PMC10397247",
  "binders": {"B1": {"name": "P3A-bP (peptide)", "chain": "DEIKQLEQEIQRLEQKNQRLKWKNQKLKQ"}, "B2": {"name": "4H1454-AA (peptide)", "chain": "DENAALEAKNAALEAKIAALKAKIAALKG"}, "B3": {"name": "P7SH (peptide)", "chain": "DEIKELEWKNEELKREIKELEEKNEELKR"}},
  "key": {"[1]": {"target": "T1, P4A-bP", "T1 chain": "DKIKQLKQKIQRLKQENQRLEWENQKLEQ", "test": "two-hybrid library CCNG1;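 further: natural log of median RNA to DNA barcode read ratio; higher means stronger binding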"}, "[2]": {"target": "T2, P3A-bP", "T2 chain": "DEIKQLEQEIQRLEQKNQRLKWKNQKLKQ", "test": "two-hybrid library CCNG1"}, "[3]": {"target": "T3, P7A-bP", "T3 chain": "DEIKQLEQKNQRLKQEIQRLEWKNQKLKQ", "test": "two-hybrid library CCNG1"}, "[4]": {"target": "T4, P8A-bP", "T4 chain": "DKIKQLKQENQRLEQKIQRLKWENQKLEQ", "test": "two-hybrid library CCNG1"}, "[5]": {"target": "T5, P6A-bP", "T5 chain": "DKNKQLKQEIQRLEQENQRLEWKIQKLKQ", "test": "two-hybrid library CCNG1"}, "[6]": {"target": "T6, P9A-bP", "T6 chain": "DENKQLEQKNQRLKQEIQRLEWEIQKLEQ", "test": "two-hybrid library CCNG1"}, "[7]": {"target": "T7, P5A-bP", "T7 chain": "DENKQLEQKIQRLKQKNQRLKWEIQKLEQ", "test": "two-hybrid library CCNG1"}, "[8]": {"target": "T8, 4H1454-AA", "T8 chain": "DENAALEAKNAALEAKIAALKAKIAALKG", "test": "two-hybrid library CCmax"}, "[9]": {"target": "T9, 4H3939-AA", "T9 chain": "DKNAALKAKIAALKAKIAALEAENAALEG", "test": "two-hybrid library CCmax", "details": "mean of both orientations"}, "[10]": {"target": "T10, 4H380-AA", "T10 chain": "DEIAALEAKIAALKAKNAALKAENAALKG", "test": "two-hybrid library CCmax", "details": "mean of both orientations"}, "[11]": {"target": "T11, 4H341-AA", "T11 chain": "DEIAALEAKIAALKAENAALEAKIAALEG", "test": "two-hybrid library CCmax", "details": "mean of both orientations"}, "[12]": {"target": "T12, 4H3414-AA", "T12 chain": "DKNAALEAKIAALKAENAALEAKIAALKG", "test": "two-hybrid library CCmax", "details": "mean of both orientations"}, "[13]": {"target": "T13, 4H2728-AA", "T13 chain": "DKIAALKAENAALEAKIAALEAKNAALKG", "test": "two-hybrid library CCmax", "details": "mean of both orientations"}, "[14]": {"target": "T14, 4H3782-AA", "T14 chain": "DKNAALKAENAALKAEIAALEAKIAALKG", "test": "two-hybrid library CCmax", "details": "mean of both orientations"}, "[15]": {"target": "T15, 4H3629-AA", "T15 chain": "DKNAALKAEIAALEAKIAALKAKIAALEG", "test": "two-hybrid library CCmax", "details": "mean of both orientations"}, "[16]": {"target": "T16, 4H63-AA", "T16 chain": "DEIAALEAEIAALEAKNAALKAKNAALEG", "test": "two-hybrid library CCmax", "details": "mean of both orientations"}, "[17]": {"target": "T17, 4H1558-AA", "T17 chain": "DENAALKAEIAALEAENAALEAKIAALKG", "test": "two-hybrid library CCmax", "details": "mean of both orientations"}, "[18]": {"target": "T18, 4H2621-AA", "T18 chain": "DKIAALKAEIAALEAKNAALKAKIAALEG", "test": "two-hybrid library CCmax", "details": "mean of both orientations"}, "[19]": {"target": "T19, 4H3595-AA", "T19 chain": "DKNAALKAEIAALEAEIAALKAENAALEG", "test": "two-hybrid library CCmax", "details": "mean of both orientations"}, "[20]": {"target": "T20, 4H2580-AA", "T20 chain": "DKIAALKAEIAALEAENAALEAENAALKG", "test": "two-hybrid library CCmax", "details": "mean of both orientations"}, "[21]": {"target": "T21, 4H3129-AA", "T21 chain": "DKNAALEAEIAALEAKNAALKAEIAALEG", "test": "two-hybrid library CCmax", "details": "mean of both orientations"}, "[22]": {"target": "T22, 4H2699-AA", "T22 chain": "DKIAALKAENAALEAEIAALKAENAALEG", "test": "two-hybrid library CCmax", "details": "mean of both orientations"}, "[23]": {"target": "T23, 4H2774-AA", "T23 chain": "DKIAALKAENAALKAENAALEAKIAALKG", "test": "two-hybrid library CCmax", "details": "mean of both orientations"}, "[24]": {"target": "T24, 4H2961-AA", "T24 chain": "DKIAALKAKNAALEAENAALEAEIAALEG", "test": "two-hybrid library CCmax", "details": "mean of both orientations"}, "[25]": {"target": "T25, 4H464-AA", "T25 chain": "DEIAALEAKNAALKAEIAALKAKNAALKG", "test": "two-hybrid library CCmax", "details": "mean of both orientations"}, "[26]": {"target": "T26, 4H1913-AA", "T26 chain": "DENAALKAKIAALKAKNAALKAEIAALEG", "test": "two-hybrid library CCmax", "details": "mean of both orientations"}, "[27]": {"target": "T27, 4H3049-AA", "T27 chain": "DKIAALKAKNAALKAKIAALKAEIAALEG", "test": "two-hybrid library CCmax", "details": "mean of both orientations"}, "[28]": {"target": "T28, 4H249-AA", "T28 chain": "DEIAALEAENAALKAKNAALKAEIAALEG", "test": "two-hybrid library CCmax", "details": "mean of both orientations"}, "[29]": {"target": "T29, 4H446-AA", "T29 chain": "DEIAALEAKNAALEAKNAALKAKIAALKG", "test": "two-hybrid library CCmax", "details": "mean of both orientations"}, "[30]": {"target": "T30, 4H483-AA", "T30 chain": "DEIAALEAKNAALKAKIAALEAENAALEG", "test": "two-hybrid library CCmax", "details": "mean of both orientations"}, "[31]": {"target": "T31, 4H2903-AA", "T31 chain": "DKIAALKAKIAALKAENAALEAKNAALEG", "test": "two-hybrid library CCmax", "details": "mean of both orientations"}, "[32]": {"target": "T32, 4H3969-AA", "T32 chain": "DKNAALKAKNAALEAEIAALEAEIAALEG", "test": "two-hybrid library CCmax", "details": "mean of both orientations"}, "[33]": {"target": "T33, P7SH", "T33 chain": "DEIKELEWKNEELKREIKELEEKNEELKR", "test": "two-hybrid library CCNG1"}, "[34]": {"target": "T34, P8SH", "T34 chain": "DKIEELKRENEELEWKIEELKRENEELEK", "test": "two-hybrid library CCNG1"}},
  "data": [
    {"binder": "B1", "values": [
      {"measurement": "interaction score", "setting": "[1]", "value": 0.89},
      {"measurement": "interaction score", "setting": "[2]", "value": -0.848},
      {"measurement": "interaction score", "setting": "[3]", "value": -0.807},
      {"measurement": "interaction score", "setting": "[4]", "value": -0.641},
      {"measurement": "interaction score", "setting": "[5]", "value": -0.316},
      {"measurement": "interaction score", "setting": "[6]", "value": -0.126},
      {"measurement": "interaction score", "setting": "[7]", "value": -0.806}
    ]},
    {"binder": "B2", "values": [
      {"measurement": "interaction score", "setting": "[8]", "value": -1.09},
      {"measurement": "interaction score", "setting": "[9]", "value": -1.25},
      {"measurement": "interaction score", "setting": "[10]", "value": -1.14},
      {"measurement": "interaction score", "setting": "[11]", "value": -1.24},
      {"measurement": "interaction score", "setting": "[12]", "value": -1.31},
      {"measurement": "interaction score", "setting": "[13]", "value": -1.37},
      {"measurement": "interaction score", "setting": "[14]", "value": 0.615},
      {"measurement": "interaction score", "setting": "[15]", "value": -1.38},
      {"measurement": "interaction score", "setting": "[16]", "value": -0.402},
      {"measurement": "interaction score", "setting": "[17]", "value": -0.946},
      {"measurement": "interaction score", "setting": "[18]", "value": -0.876},
      {"measurement": "interaction score", "setting": "[19]", "value": 0.813},
      {"measurement": "interaction score", "setting": "[20]", "value": -0.961},
      {"measurement": "interaction score", "setting": "[21]", "value": -1.84},
      {"measurement": "interaction score", "setting": "[22]", "value": -0.894},
      {"measurement": "interaction score", "setting": "[23]", "value": -1.09},
      {"measurement": "interaction score", "setting": "[24]", "value": 1.04},
      {"measurement": "interaction score", "setting": "[25]", "value": -1.48},
      {"measurement": "interaction score", "setting": "[26]", "value": -1.24},
      {"measurement": "interaction score", "setting": "[27]", "value": 0.754},
      {"measurement": "interaction score", "setting": "[28]", "value": -1.11},
      {"measurement": "interaction score", "setting": "[29]", "value": -1.96},
      {"measurement": "interaction score", "setting": "[30]", "value": -0.924},
      {"measurement": "interaction score", "setting": "[31]", "value": -1.74},
      {"measurement": "interaction score", "setting": "[32]", "value": 2.05}
    ]},
    {"binder": "B3", "values": [
      {"measurement": "interaction score", "setting": "[33]", "value": -0.227},
      {"measurement": "interaction score", "setting": "[34]", "value": 2.08}
    ]}
  ]
}
